The target of assay [1] is T1, protein kinase C (PKC) peptide FTRHPPVLTPPDQEVI test bait (rat, also: fused to LexA DNA binding domain (order, linker not given here)).
T1 construct: Negative control bait in the two hybrid mating test; also called peptide derived from rat protein kinase Cβ2
T1 chain: FTRHPPVLTPPDQEVI
Description: yeast two hybrid mating test with negative control baits.

Assay [2] deals with T2, small GTP-binding protein RhoB test bait (UniProt P62745 1-196, limits assumed).
T2 construct: Negative control bait in the two hybrid mating test
Described as above.

Assay [3] has as its target T3, LexA-MB1 fusion protein (human c-Myc Myc box 1 peptide, amino acids 47-62) (human).
T3 construct: also called MB1 bait; lexA-MB1 peptide construct
The assay is described as follows: yeast two hybrid, mating test with LexA baits.

The target in assay [4] is extracellular protein PAI-1 (UniProt P05121 24-402, limits assumed). Description: GST pull-down.
Assay [5] has as its target small GTP-binding protein RhoB (tested for GST-ATG99 interaction) (UniProt P62745 1-196, limits assumed). The assay is described as follows: GST pull-down.
A further assay addresses Max (UniProt P61244 1-160, limits assumed). The assay is described as follows: GST pull-down.
In assay [6] the target is transcription factor YY 1 (UniProt P25490 1-414, limits assumed). The assay is described as follows: GST pull-down.
The target of another assay is T4, cell cycle protein p107 (UniProt P28749 1-1068, limits assumed).
T4 sequence (looked up): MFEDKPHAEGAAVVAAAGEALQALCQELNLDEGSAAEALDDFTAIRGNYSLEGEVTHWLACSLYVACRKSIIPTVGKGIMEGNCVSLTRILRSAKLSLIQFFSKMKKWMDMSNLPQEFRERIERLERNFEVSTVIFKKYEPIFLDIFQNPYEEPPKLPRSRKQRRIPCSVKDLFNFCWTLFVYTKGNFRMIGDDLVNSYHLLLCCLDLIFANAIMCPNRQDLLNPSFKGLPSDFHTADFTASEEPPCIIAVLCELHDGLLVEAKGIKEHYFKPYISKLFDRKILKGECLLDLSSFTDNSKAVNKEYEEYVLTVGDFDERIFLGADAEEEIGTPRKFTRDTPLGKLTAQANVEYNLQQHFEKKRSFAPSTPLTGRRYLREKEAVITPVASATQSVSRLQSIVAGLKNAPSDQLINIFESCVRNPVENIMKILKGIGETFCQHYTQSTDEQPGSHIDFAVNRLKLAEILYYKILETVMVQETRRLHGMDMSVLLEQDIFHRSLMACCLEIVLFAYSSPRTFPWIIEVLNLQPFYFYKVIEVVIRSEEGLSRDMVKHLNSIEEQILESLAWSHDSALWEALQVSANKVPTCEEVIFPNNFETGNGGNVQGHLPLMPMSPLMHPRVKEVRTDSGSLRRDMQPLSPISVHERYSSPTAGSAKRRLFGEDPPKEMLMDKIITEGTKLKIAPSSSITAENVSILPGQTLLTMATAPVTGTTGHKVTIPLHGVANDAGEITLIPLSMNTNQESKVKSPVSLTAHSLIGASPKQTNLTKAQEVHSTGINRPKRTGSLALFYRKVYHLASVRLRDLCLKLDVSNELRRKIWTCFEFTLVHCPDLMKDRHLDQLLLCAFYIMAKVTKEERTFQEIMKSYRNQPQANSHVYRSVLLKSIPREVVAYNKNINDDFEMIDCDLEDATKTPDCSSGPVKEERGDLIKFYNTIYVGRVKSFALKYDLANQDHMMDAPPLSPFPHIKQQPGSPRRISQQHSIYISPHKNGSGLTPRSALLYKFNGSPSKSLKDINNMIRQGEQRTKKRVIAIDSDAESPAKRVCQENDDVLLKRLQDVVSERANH
Description: GST pull-down.

The next assay deals with T5, USF (vector CMV-USF) (UniProt P22415 1-310, limits assumed).
T5 construct: 35S-labelled in vitro translated protein
Description: GST pull-down of 35S-labelled IVT protein.

Assay [7] addresses T6, c-Myc with both MB1 (49-101) and MB2 (120-140) deletions (human, UniProt P01106 1-48; P01106 102-119; P01106 141-439).
T6 construct: range 1-48; also called CMV Hm subclone containing both deletions
Description: GST pull-down of 35S-labelled IVT protein.

Assay [8] deals with T7, SV40 large T antigen (vector pTag) (SV40, UniProt P03070 1-708).
T7 construct: 35S-labelled in vitro translated protein
The assay is described as follows: GST pull-down of 35S-labelled IVT protein.

The values below come from US20030166021A1 (WISTAR INSTITUTE OF ANATOMY AND BIOLOGY, published 2003).

Ends that are not written are not given here.

extracellular protein PAI-1, sequence (P05121 24-402 limits assumed): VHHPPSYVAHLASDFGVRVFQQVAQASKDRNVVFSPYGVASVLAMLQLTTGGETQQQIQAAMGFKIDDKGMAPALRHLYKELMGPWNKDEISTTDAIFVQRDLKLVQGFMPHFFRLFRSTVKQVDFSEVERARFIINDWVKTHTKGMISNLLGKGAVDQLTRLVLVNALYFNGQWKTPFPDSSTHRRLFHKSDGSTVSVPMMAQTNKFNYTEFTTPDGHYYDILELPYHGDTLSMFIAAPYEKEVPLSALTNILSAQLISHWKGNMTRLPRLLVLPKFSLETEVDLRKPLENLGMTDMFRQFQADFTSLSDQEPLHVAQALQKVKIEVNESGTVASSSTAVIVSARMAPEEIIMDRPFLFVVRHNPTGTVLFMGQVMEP
T5 sequence (P22415 whole entry): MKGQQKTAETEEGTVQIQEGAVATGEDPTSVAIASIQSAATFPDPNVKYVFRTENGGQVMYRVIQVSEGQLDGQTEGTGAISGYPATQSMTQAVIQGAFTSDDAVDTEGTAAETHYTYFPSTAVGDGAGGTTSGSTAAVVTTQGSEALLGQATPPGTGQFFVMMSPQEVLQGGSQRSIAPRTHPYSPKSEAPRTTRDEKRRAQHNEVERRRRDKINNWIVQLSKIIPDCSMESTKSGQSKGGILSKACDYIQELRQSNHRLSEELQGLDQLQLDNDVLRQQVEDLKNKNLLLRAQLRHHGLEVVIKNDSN
small GTP-binding protein RhoB (tested for GST-ATG99 interaction), sequence (P62745 whole entry): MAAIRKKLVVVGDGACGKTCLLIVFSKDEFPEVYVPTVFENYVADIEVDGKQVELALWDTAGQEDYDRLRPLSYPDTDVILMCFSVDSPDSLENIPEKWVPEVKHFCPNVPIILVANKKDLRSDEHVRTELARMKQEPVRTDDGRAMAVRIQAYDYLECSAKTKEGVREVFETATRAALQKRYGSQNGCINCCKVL
T2 sequence (P62745 whole entry): as above
Max, sequence (P61244 whole entry): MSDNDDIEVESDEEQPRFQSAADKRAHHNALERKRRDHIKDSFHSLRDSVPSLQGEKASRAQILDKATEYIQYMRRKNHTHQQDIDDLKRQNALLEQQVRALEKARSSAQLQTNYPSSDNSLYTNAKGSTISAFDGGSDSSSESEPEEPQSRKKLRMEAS
transcription factor YY 1, sequence (P25490 whole entry): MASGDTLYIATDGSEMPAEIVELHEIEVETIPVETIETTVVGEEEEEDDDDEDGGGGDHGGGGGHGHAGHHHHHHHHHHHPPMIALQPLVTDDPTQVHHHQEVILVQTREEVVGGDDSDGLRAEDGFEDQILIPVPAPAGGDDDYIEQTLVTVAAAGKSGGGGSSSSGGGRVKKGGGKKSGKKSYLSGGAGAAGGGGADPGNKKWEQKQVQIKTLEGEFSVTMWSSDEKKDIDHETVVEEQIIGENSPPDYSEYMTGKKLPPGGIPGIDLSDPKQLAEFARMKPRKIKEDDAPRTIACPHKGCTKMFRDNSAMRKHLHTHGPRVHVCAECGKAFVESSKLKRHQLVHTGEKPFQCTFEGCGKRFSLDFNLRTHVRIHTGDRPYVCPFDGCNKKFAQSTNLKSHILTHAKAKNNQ
T6 sequence (P01106 other isoform, or with tags, fused parts or gaps limits assumed): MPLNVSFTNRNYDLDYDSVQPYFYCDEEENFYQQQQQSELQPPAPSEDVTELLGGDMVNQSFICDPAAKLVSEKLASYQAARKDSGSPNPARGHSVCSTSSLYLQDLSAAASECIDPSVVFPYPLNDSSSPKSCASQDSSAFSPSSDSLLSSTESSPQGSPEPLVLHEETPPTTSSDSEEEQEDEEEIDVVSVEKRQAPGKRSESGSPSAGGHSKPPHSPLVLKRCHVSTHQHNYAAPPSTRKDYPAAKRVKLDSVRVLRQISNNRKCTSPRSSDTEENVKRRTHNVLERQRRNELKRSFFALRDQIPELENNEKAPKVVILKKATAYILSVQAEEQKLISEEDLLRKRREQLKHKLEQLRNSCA

B1: murine Bin1 135 amino acid polypeptide (clone #99 ORF) as VP16 fusion from the two hybrid cDNA library (other)
chain: EIRVNHEPEPASGASPGAAIPKSPSQPAEASEVVGGAQEPGETAASEATSSSLPAVVVETFSATVNGAVEGSAGTGRLDLPPGFMFKVQAQHDYTATDTDELQLKAGDVVLVIPFQNPEEQDEGWLMGVKESD
notes: Prey of the yeast two hybrid screen
B1: the results for the binding result in [1], in assay [2] and in assay [3] were “no binding”, “no binding” and “binds”, respectively.

B2: GST-ATG99 polypeptide (glutathione-S-transferase fusion of the 135 aa murine Bin1 polypeptide) (other)
chain: B1 chain
notes: Expressed in E. coli, purified on glutathione-Sepharose; not shown: glutathione-S-transferase of vector pGEX-2T (Pharmacia); 15 amino acid N-terminal extension with initiator methionine (3 amino acids from E47 and 12 amino acids from VP16); lett
In the case of B2, the binding result (in assay [4]; in [5]; in the assay with Max; in assay [6]; with cell cycle protein p107; in the assay with USF (vector CMV-USF)) was “no binding” throughout. The binding result in assay [7] and in assay [8] was “no binding” throughout.
